Consider one protein from article PMC5428420, “The trimer interface in the quaternary structure of the bifunctional prokaryotic FAD synthetase from Corynebacterium ammoniagenes” (Scientific Reports, 2017).

This data set deals with the molecule itself. Description: SEC; oligomeric fractions, 15-20 µM protein, incubated 10 min at room temperature in buffer only (20 mM PIPES, 0.8 mM MgCl2, pH 7.0), then passed again through Superdex 200 10/300 GL. (In general: Size exclusion chromatography separates by hydrodynamic size, large species first.)

B1: FAD synthetase from Corynebacterium ammoniagenes, wild type (enzyme)
chain: MDIWYGTAAVPKDLDNSAVTIGVFDGVHRGHQKLINATVEKAREVGAKAIMVTFDPHPVSVFLPRRAPLGITTLAERFALAESFGIDGVLVIDFTRELSGTSPEKYVEFLLEDTLHASHVVVGANFTFGENAAGTADSLRQICQSRLTVDVIDLLDDEGVRISSTTVREFLSEGDVARANWALGRHFYVTGPVVRGAGRGGKELGFPTANQYFHDTVALPADGVYAGWLTILPTEAPVSGNMEPEVAYAAAISVGTNPTFGDEQRSVESFVLDRDADLYGHDVKVEFVDHVRAMEKFDSVEQLLEVMAKDVQKTRTLLAQDVQAHKMAPETYFLQAES
notes: Bifunctional FAD synthetase (N-terminal FMNAT module, C-terminal RFK module) from Corynebacterium ammoniagenes, CaFADS; Plasmid pET28a-CaFADS; The size of the oligomers was not resolved by gel filtration; also called CaFADS; WT CaFADS; source: E. coli BL21(DE3), purified (20% ammonium sulfate fractionation, phenyl-sepharose, DEAE-cellulose)
In the case of B1, the monomer/oligomer ratio is about 0.8.
